The values that follow come from patent publication US20110305783A1, “Method and pharmaceutical composition for treating psoriasis, squamous cell carcinoma and/or parakeratosis by inhibiting expression of squamous cell carcinoma-related antigen” (Shiseido Company, Ltd., priority 2005, published 2011).

Format in all cases: biochemical
Assay [1] has as its target T1, caspase-14 (Homo sapiens, UniProt P31944).
T1 construct: human caspase-14 is purified in the form of a heterodimer composed of a large subunit (17 KDa) and a small subunit (11 KDa); from tissue; host or cells: human cornified cells (heel stratum corneum)
T1 sequence (P31944 6-146 limits assumed): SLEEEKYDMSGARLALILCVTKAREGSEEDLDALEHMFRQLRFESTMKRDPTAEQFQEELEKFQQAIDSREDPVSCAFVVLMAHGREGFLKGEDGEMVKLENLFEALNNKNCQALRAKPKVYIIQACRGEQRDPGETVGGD
T1 sequence (P31944 153-242 limits assumed): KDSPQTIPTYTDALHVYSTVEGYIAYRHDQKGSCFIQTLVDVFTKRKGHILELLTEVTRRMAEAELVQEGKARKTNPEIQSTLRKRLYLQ
Put plainly: Inhibitor assay on purified caspase-14, WEHD-MCA hydrolysis activity. The protocol: Caspase-14 was incubated with peptide inhibitors of caspase (consisting of YVAD, VDVAD, DEVD, VEID, IETD, LEHD and DNLD) and class-specific inhibitors of cysteine proteinase (IAA) and serine proteinase (AEBSF). Residual enzyme activity was measured using WEHD-MCA as substrate in the presence of 1.3 M sodium citrate and 5 mM DTT. […] The values are shown as the average values of duplicate assays.
Briefly, the assay mixture was prepared from 45 μl of 0.1 M HEPES buffer (pH 7.5), 0.06 M NaCl, 0.01% CHAPS, 5 mM DTT, 1.3 M sodium citrate and 10 μM WEHD-MCA (all concentrations indicate the final concentrations). An enzyme sample (5 μl) was added to this mixture followed by incubating for 10 to 30 minutes. The reaction was stopped with 150 μl of 0.1 M monochloroacetic acid, and measurements were performed at an excitation wavelength of 355 nm and emission wavelength of 460 nm using Fluoroskan Ascent FL (Thermo Electron Co., Wolsam, Mass.). In the case of the inhibitor assay, caspase-14 and peptide inhibitor were incubated in the assay buffer for 15 minutes, and the assay was started with the addition of 5 μl of 100 μM WEHD-MCA.
Human cornified cells (approx. 14 g) scraped from the heels of healthy individuals were extracted with 0.1 M Tris-HCl (pH 8.0) containing 0.14 M NaCl using a glass homogenizer. A supernatant was obtained after centrifuging at 15,000 g for 60 minutes. After concentrating with Amicon Ultra (Millipore, Mass.) and desalting with the Fast Desalting Column HR10/10 (Amersham Biosciences), the crude product was applied to a HiPrep 16/10 QXL column. […] In addition, hydrolysis activity with respect to Ac-[…]-Glu-His-Asp-methyl-coumarin amide (WEHD-MCA) (Peptide Institute, Inc., Osaka, Japan) was measured for each fraction. Positive fractions were placed on a Mono Q column equilibrated with the same buffer and eluted a maximum NaCl gradient of 1 M. The caspase-14 fraction was further separated by Mono S cationic exchange chromatography. The column was equilibrated with 20 mM acetate buffer (pH 4.5) and eluted at an NaCl gradient of 0 to 1 M. Positive fractions were concentrated and placed on a chromatofocusing Mono P column equilibrated with 25 mM ethanolamine (pH 8.3). The column was eluted while forming a pH gradient from 8 to 5 using 46 ml of Polybuffer (pH 5.0). The caspase-14 was finally purified using Superdex 75 gel chromatography. The protein concentration was determined with the BioRad Protein Assay Kit (BioRad Lab, Hercules, Calif.).

For a further assay, the target named is T2, caspase-3 (Homo sapiens, UniProt P42574).
T2 construct: purchased BIOMOL Research Labs, Inc. (Plymouth Meeting, Pa.)
T2 sequence (P42574 29-277): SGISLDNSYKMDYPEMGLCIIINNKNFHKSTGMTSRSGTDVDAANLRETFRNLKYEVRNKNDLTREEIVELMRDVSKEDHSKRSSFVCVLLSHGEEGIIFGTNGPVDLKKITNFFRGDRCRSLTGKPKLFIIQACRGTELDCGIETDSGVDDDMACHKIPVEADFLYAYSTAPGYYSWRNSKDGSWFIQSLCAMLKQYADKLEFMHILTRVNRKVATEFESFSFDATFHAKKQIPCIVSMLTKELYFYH
Put plainly: Caspase-3 activity with SCCA-1, synthetic substrate DEVD-MCA or natural substrate ICAD. The text has this:
The enzymatic characteristics of purified caspase-14 were extremely unique. […] The inventors of the present invention determined for the first time that SCCA-1 is an intrinsic inhibitor against caspase-14. The most unique characteristic of SCCA-1 is its remarkable specificity for caspase-14. Other members of caspase-1 to -10 are not affected by SCCA-1. […] Crm A belongs to the serpin superfamily and is known to be able to inhibit a large number of caspases including caspase-1 and caspase-8 (Gagliardini, V., et al., Science 263, 826-(1994)). XIAP is known to inhibit caspase-3, -7 and -9 (Srinivasula, S. M., et al., Nature 410, 112-6 (2001)). Since the anti-apoptotic protein p35 inhibits caspase-1, -3, -6, -7, -8 and -10, it is considered to have a broader spectrum.

The test system of assay [2] is Recombinant caspases-1 to 10. Nature of the assay: Recombinant caspases incubated with SCCA-1, hydrolysis of synthetic caspase substrates. The following applies: recombinant caspase incubated with SCCA-1 (FIG. 10C). The protocol:
(§1) ICAD decomposition was only observed in the presence of kosmotropic salt. […] When SCCA-1 was added to the mixture, ICAD decomposition was virtually not detected, and there were still no effects after incubating for 16 hours (B). (C) The results are shown of investigating hydrolysis activity on synthetic caspase substrates in the presence of kosmotropic salt.
Benzyloxycarbonyl (Z)-YVAD-FMK, Z-VDVSD-FMK, Z-DEVD-FMK, Z-VEID-FMK, Z-IETD-FMK, Z-LEHD-FMK and Z-VAD-FMK were purchased from BioVision (Mountain View, Calif.). Recombinant caspases-1 to 10 were obtained from BIOMOL Research Labs, Inc. (Plymouth Meeting, Pa.).
(§2) Although SCCA-1 is a member of the serpin superfamily, it inhibits cysteine proteases such as papain and cathepsin L (Takeda, A., et al., Biol. Chem., 383, 1231-6 (2002)). […] Thus, the inventors of the present invention conducted a test as to whether or not SCCA-1 is able to inhibit caspase members. Kosmotropic conditions were used in the case of caspase-14. […] Recovery of enzyme activity was not observed even if the incubation time increased.

For assay [3], the target named is T1, caspase-14. Put plainly: ICAD decomposition by purified caspase-14, Western blot. The following applies: pre-incubation with 10 μM SCCA-1, kosmotropic salt, Western blot (FIG. 10B). The procedure:
as §1
The inventors of the present invention tested the effects of caspase-14 on ICAD during the course of searching for natural substrates of caspase-14. This is because disappearance of the nucleus is an extremely important event for terminal differentiation.
as §2
(In general: In western blotting, separated proteins are transferred to a membrane and probed.)

Setting [4] is: inhibitors at 5, 2.5 and 1.25 μM, WEHD-MCA substrate, 1.3 M sodium citrate, 5 mM DTT.

Entries after “also recorded” stand apart in the source; their conditions may differ. Where two headings read alike, the source gives them in different places. Ends that are not written are not given here. * marks the point of attachment. Cbz = O=C(OCc1ccccc1)*; CH2F = FC*

As to `NCCc1ccc(S(=O)(=O)F)cc1` [ABBSF, 4-(2-aminoethyl)benzenesulfonyl fluoride], the “Inhibitory effect on purified caspase-14 activity” value (from here on “Inhibitory effect”) on caspase-14 [1] (setting [4]) is listed as “did not exhibit significant inhibitory effects”.

In the case of `O=C(O)CI` [IAA, iodoacetic acid], at caspase-14 [1], the “Inhibitory effect” value is recorded as “did not exhibit significant inhibitory effects”.

On to Benzyloxycarbonyl (Z)-YVAD-FMK, for which the “Inhibitory effect” value with caspase-14 [1] (setting [4]) is recorded as “extremely potent inhibitory effects; also recorded: most potent inhibitory action”.

For DEVD-FMK: caspase-3 inhibitor, in the assay with caspase-14 [1] (setting [4]), the “Inhibitory effect” value is on record as “sensitivity”.

For “IETD-FMK: caspase-8 inhibitor (Cbz-IETD-CH2F)”, in the assay with caspase-14 [1] (setting [4]), the “Inhibitory effect” value is “sensitivity”.

For the molecule “LEHD-FMK: caspase-9 inhibitor (Cbz-LEHD-CH2F)”, the “Inhibitory effect” value in the assay with caspase-14 [1] (setting [4]) was “sensitivity”.

Take “VAD-FMK: pan-caspase inhibitor (Cbz-Val-Ala-Asp-CH2F)”: the “Inhibitory effect” value with caspase-14 [1] (setting [4]) is reported as “sensitivity; also recorded: one of the most potent caspase-14 inhibitors”.

Take “VDVAD-FMK: caspase-2 inhibitor (VDVAD-CH2F)”: the “Inhibitory effect” value with caspase-14 [1] (setting [4]) is given as “sensitivity”.

In the case of “VEID-FMK: peptide inhibitor of caspase (Cbz-VEID-CH2F)”, in the assay with caspase-14 [1] (setting [4]), the “Inhibitory effect” value is reported as “hardly any effect”.

B1: SCCA-1: recombinant squamous cell carcinoma antigen 1, member of the serpin superfamily, intrinsic inhibitor of caspase-14 (protein)
chain: MNSLSEANTKFMFDLFQQFRKSKENNIFYSPISITSALGMVLLGAKDNTAQQIKKVLHFDQVTENTTGKAATYHVDRSGNVHHQFQKLLTEFNKSTDAYELKIANKLFGEKTYLFLQEYLDAIKKFYQTSVESVDFANAPEESRKKINSWVESQTNEKIKNLIPEGNIGSNTTLVLVNAIYFKGQWEKKFNKEDTKEEKFWPNKNTYKSIQMMRQYTSFHFASLEDVQAKVLEIPYKGKDLSMIVLLPNEIDGLQKLEEKLTAEKLMEWTSLQNMRETRVDLHLPRFKVEESYDLKDTLRTMGMVDIFNGDADLSGMTGSRGLVLSGVLHKAFVEVTEEGAEAAAATAVVGFGSSPTSTNEEFHCNHPFLFFIRQNKTNSILFYGRFSSP
For B1, the “Inhibition of caspase-3 activity” value with caspase-3 is given as “did not inhibit”. Moreover, the “Effect on enzyme activity of caspase members (1 to 10)” value in assay [2] was “None of the caspase members (1 to 10) were affected”. Further, the “Inhibition of ICAD cleavage by caspase-14” value with caspase-14 [3] is “inhibited decomposition of ICAD; also recorded: completely inhibited”.
